Test results from PMC12137140, “The fast-evolving FIKK kinase family of Plasmodium falciparum can be inhibited by a single compound” (Nature Microbiology, 2025).
Where no end group is shown, it is not given here. [ ]: non-standard residue; d: D form.

Target: Bio-His-FIKK13 (Plasmodium falciparum 3D7)
Assay: SPR; single-cycle kinetics, Biacore S200, Biotin CAPture kit; Bio-His-FIKK13 immobilised (about 1,400 RU), peptides as analytes; 50 mM Tris pH 7.5, 250 mM NaCl, 2 mM DTT, 10 mM MgCl2, 1.5 µM ADP, 0.02% Tween, 0.1% DMSO; 25 °C; 100 s contact time

B1: FIKK13_4_Y10A (peptide)
peptide: YPLRFLSVKAHCG
modifications: D-tyrosine at position 1; cyclised via a thioether bond between the N-terminus and the cysteine side chain; C-terminal amide
Kd: > 10 µM

B2: FIKK13_3 (peptide)
peptide: YPFITSPRYCFML
modifications: D-tyrosine at position 1; cyclised via a thioether bond between the N-terminus and the cysteine side chain; C-terminal amide
koff: 0.029 s⁻¹
kon: 3.5e+06 M⁻¹ s⁻¹

B3: FIKK13_1 (peptide)
peptide: YRLVFGCG
modifications: D-tyrosine at position 1; cyclised via a thioether bond between the N-terminus and the cysteine side chain; C-terminal amide
Kd: > 10 µM

B4: FIKK13_5 (peptide)
peptide: YRIFRIWWERCG
modifications: D-tyrosine at position 1; cyclised via a thioether bond between the N-terminus and the cysteine side chain; C-terminal amide
koff: 0.07 s⁻¹
kon: 1.9e+06 M⁻¹ s⁻¹

B5: FIKK13_6 (peptide)
peptide: YIVSVVCWSD
modifications: D-tyrosine at position 1; cyclised via a thioether bond between the N-terminus and the cysteine side chain; C-terminal amide
Kd: > 10 µM

B6: FIKK13_2 (peptide)
peptide: YSFPVYRIWYRDCG
modifications: D-tyrosine at position 1; cyclised via a thioether bond between the N-terminus and the cysteine side chain; C-terminal amide
koff: 0.2 s⁻¹
kon: 1.4e+06 M⁻¹ s⁻¹

B7: FIKK13_2_linear (peptide)
peptide: [dY]SFPVYRIWYRDCG-NH2
modifications: N-terminus assumed
SMILES: CC[C@H](C)[C@H](NC(=O)[C@H](CCCNC(=N)N)NC(=O)[C@H](Cc1ccc(O)cc1)NC(=O)[C@@H](NC(=O)[C@@H]1CCCN1C(=O)[C@H](Cc1ccccc1)NC(=O)[C@H](CO)NC(=O)[C@H](N)Cc1ccc(O)cc1)C(C)C)C(=O)N[C@@H](Cc1c[nH]c2ccccc12)C(=O)N[C@@H](Cc1ccc(O)cc1)C(=O)N[C@@H](CCCNC(=N)N)C(=O)N[C@@H](CC(=O)O)C(=O)N[C@@H](CS)C(=O)NCC(N)=O
Kd: > 10 µM

B8: FIKK13_4_linear (peptide)
peptide: [dY]PLRFLSVKYHCG-NH2
modifications: N-terminus assumed
SMILES: CC(C)C[C@H](NC(=O)[C@H](Cc1ccccc1)NC(=O)[C@H](CCCNC(=N)N)NC(=O)[C@H](CC(C)C)NC(=O)[C@@H]1CCCN1C(=O)[C@H](N)Cc1ccc(O)cc1)C(=O)N[C@@H](CO)C(=O)N[C@H](C(=O)N[C@@H](CCCCN)C(=O)N[C@@H](Cc1ccc(O)cc1)C(=O)N[C@@H](Cc1c[nH]cn1)C(=O)N[C@@H](CS)C(=O)NCC(N)=O)C(C)C
Kd: > 10 µM
